Experimental data reported in doi:10.1101/2025.10.06.680828 (bioRxiv, 2025).

B1: human Drp1 isoform 6 (natural protein)
chain: MEALIPVINKLQDVFNTVGADIIQLPQIVVVGTQSSGKSSVLESLVGRDLLPRGTGIVTRRPLILQLVHVSQEDKRKTTGEENDPATWKNSRHLSKGVEAEEWGKFLHTKNKLYTDFDEIRQEIENETERISGNNKGVSPEPIHLKIFSPNVVNLTLVDLPGMTKVPVGDQPKDIELQIRELILRFISNPNSIILAVTAANTDMATSEALKISREVDPDGRRTLAVITKLDLMDAGTDAMDVLMGRVIPVKLGIIGVVNRSQLDINNKKSVTDSIRDEYAFLQKKYPSLANRNGTKYLARTLNRLLMHHIRDCLPELKTRINVLAAQYQSLLNSYGEPVDDKSATLLQLITKFATEYCNTIEGTAKYIETSELCGGARICYIFHETFGRTLESVDPLGGLNTIDILTAIRNATGPRPALFVPEVSFELLVKRQIKRLEEPSLRCVELVHEEMQRIIQHCSNYSTQELLRFPKLHDAIVEVVTCLLRKRLPVTNEMVHNLVAIELAYINTKHPDFADACGLMNNNIEEQRRNRLARELPSAVSRDKSSKVPSALAPASQEPSPAASAEADGKVASGGGGVGDGVQEPTTGNWRGMLKTSKAEELLAEEKSKPIPIMPASPQKGHAVNLLDVPVPVARKLSAREQRDCEVIERLIKSYFLIVRKNIQDSVPKAVMHFLVNHVKDTLQSELVGQLYKSSLLDDLLTESEDMAQRRKEAADMLKALQGASQIIAEIRETHLW
B2: human Drp1 isoform 4 (natural protein)
chain: MEALIPVINKLQDVFNTVGADIIQLPQIVVVGTQSSGKSSVLESLVGRDLLPRGTGIVTRRPLILQLVHVSQEDKRKTTGEENGVEAEEWGKFLHTKNKLYTDFDEIRQEIENETERISGNNKGVSPEPIHLKIFSPNVVNLTLVDLPGMTKVPVGDQPKDIELQIRELILRFISNPNSIILAVTAANTDMATSEALKISREVDPDGRRTLAVITKLDLMDAGTDAMDVLMGRVIPVKLGIIGVVNRSQLDINNKKSVTDSIRDEYAFLQKKYPSLANRNGTKYLARTLNRLLMHHIRDCLPELKTRINVLAAQYQSLLNSYGEPVDDKSATLLQLITKFATEYCNTIEGTAKYIETSELCGGARICYIFHETFGRTLESVDPLGGLNTIDILTAIRNATGPRPALFVPEVSFELLVKRQIKRLEEPSLRCVELVHEEMQRIIQHCSNYSTQELLRFPKLHDAIVEVVTCLLRKRLPVTNEMVHNLVAIELAYINTKHPDFADACGLMNNNIEEQRRNRLARELPSAVSRDKSSKVPSALAPASQEPSPAASAEADGKVASGGGGVGDGVQEPTTGNWRGMLKTSKAEELLAEEKSKPIPIMPASPQKGHAVNLLDVPVPVARKLSAREQRDCEVIERLIKSYFLIVRKNIQDSVPKAVMHFLVNHVKDTLQSELVGQLYKSSLLDDLLTESEDMAQRRKEAADMLKALQGASQIIAEIRETHLW
B3: human Drp1 isoform 3 (natural protein)
chain: MEALIPVINKLQDVFNTVGADIIQLPQIVVVGTQSSGKSSVLESLVGRDLLPRGTGIVTRRPLILQLVHVSQEDKRKTTGEENGVEAEEWGKFLHTKNKLYTDFDEIRQEIENETERISGNNKGVSPEPIHLKIFSPNVVNLTLVDLPGMTKVPVGDQPKDIELQIRELILRFISNPNSIILAVTAANTDMATSEALKISREVDPDGRRTLAVITKLDLMDAGTDAMDVLMGRVIPVKLGIIGVVNRSQLDINNKKSVTDSIRDEYAFLQKKYPSLANRNGTKYLARTLNRLLMHHIRDCLPELKTRINVLAAQYQSLLNSYGEPVDDKSATLLQLITKFATEYCNTIEGTAKYIETSELCGGARICYIFHETFGRTLESVDPLGGLNTIDILTAIRNATGPRPALFVPEVSFELLVKRQIKRLEEPSLRCVELVHEEMQRIIQHCSNYSTQELLRFPKLHDAIVEVVTCLLRKRLPVTNEMVHNLVAIELAYINTKHPDFADACGLMNNNIEEQRRNRLARELPSAVSRDKVASGGGGVGDGVQEPTTGNWRGMLKTSKAEELLAEEKSKPIPIMPASPQKGHAVNLLDVPVPVARKLSAREQRDCEVIERLIKSYFLIVRKNIQDSVPKAVMHFLVNHVKDTLQSELVGQLYKSSLLDDLLTESEDMAQRRKEAADMLKALQGASQIIAEIRETHLW
B4: human Drp1 isoform 8 (natural protein)
chain: MEALIPVINKLQDVFNTVGADIIQLPQIVVVGTQSSGKSSVLESLVGRDLLPRGTGIVTRRPLILQLVHVSQEDKRKTTGEENDPATWKNSRHLSKGVEAEEWGKFLHTKNKLYTDFDEIRQEIENETERISGNNKGVSPEPIHLKIFSPNVVNLTLVDLPGMTKVPVGDQPKDIELQIRELILRFISNPNSIILAVTAANTDMATSEALKISREVDPDGRRTLAVITKLDLMDAGTDAMDVLMGRVIPVKLGIIGVVNRSQLDINNKKSVTDSIRDEYAFLQKKYPSLANRNGTKYLARTLNRLLMHHIRDCLPELKTRINVLAAQYQSLLNSYGEPVDDKSATLLQLITKFATEYCNTIEGTAKYIETSELCGGARICYIFHETFGRTLESVDPLGGLNTIDILTAIRNATGPRPALFVPEVSFELLVKRQIKRLEEPSLRCVELVHEEMQRIIQHCSNYSTQELLRFPKLHDAIVEVVTCLLRKRLPVTNEMVHNLVAIELAYINTKHPDFADACGLMNNNIEEQRRNRLARELPSAVSRDKVASGGGGVGDGVQEPTTGNWRGMLKTSKAEELLAEEKSKPIPIMPASPQKGHAVNLLDVPVPVARKLSAREQRDCEVIERLIKSYFLIVRKNIQDSVPKAVMHFLVNHVKDTLQSELVGQLYKSSLLDDLLTESEDMAQRRKEAADMLKALQGASQIIAEIRETHLW
B5: human Drp1 isoform 5 (natural protein)
chain: MEALIPVINKLQDVFNTVGADIIQLPQIVVVGTQSSGKSSVLESLVGRDLLPRGTGIVTRRPLILQLVHVSQEDKRKTTGEENDPATWKNSRHLSKGVEAEEWGKFLHTKNKLYTDFDEIRQEIENETERISGNNKGVSPEPIHLKIFSPNVVNLTLVDLPGMTKVPVGDQPKDIELQIRELILRFISNPNSIILAVTAANTDMATSEALKISREVDPDGRRTLAVITKLDLMDAGTDAMDVLMGRVIPVKLGIIGVVNRSQLDINNKKSVTDSIRDEYAFLQKKYPSLANRNGTKYLARTLNRLLMHHIRDCLPELKTRINVLAAQYQSLLNSYGEPVDDKSATLLQLITKFATEYCNTIEGTAKYIETSELCGGARICYIFHETFGRTLESVDPLGGLNTIDILTAIRNATGPRPALFVPEVSFELLVKRQIKRLEEPSLRCVELVHEEMQRIIQHCSNYSTQELLRFPKLHDAIVEVVTCLLRKRLPVTNEMVHNLVAIELAYINTKHPDFADACGLMNNNIEEQRRNRLARELPSAVSRDKSSKVPSALAPASQEPSPAASAEADGKLIQDSRRETKNVASGGGGVGDGVQEPTTGNWRGMLKTSKAEELLAEEKSKPIPIMPASPQKGHAVNLLDVPVPVARKLSAREQRDCEVIERLIKSYFLIVRKNIQDSVPKAVMHFLVNHVKDTLQSELVGQLYKSSLLDDLLTESEDMAQRRKEAADMLKALQGASQIIAEIRETHLW
B6: human Drp1 isoform 2 (natural protein)
chain: MEALIPVINKLQDVFNTVGADIIQLPQIVVVGTQSSGKSSVLESLVGRDLLPRGTGIVTRRPLILQLVHVSQEDKRKTTGEENGVEAEEWGKFLHTKNKLYTDFDEIRQEIENETERISGNNKGVSPEPIHLKIFSPNVVNLTLVDLPGMTKVPVGDQPKDIELQIRELILRFISNPNSIILAVTAANTDMATSEALKISREVDPDGRRTLAVITKLDLMDAGTDAMDVLMGRVIPVKLGIIGVVNRSQLDINNKKSVTDSIRDEYAFLQKKYPSLANRNGTKYLARTLNRLLMHHIRDCLPELKTRINVLAAQYQSLLNSYGEPVDDKSATLLQLITKFATEYCNTIEGTAKYIETSELCGGARICYIFHETFGRTLESVDPLGGLNTIDILTAIRNATGPRPALFVPEVSFELLVKRQIKRLEEPSLRCVELVHEEMQRIIQHCSNYSTQELLRFPKLHDAIVEVVTCLLRKRLPVTNEMVHNLVAIELAYINTKHPDFADACGLMNNNIEEQRRNRLARELPSAVSRDKLIQDSRRETKNVASGGGGVGDGVQEPTTGNWRGMLKTSKAEELLAEEKSKPIPIMPASPQKGHAVNLLDVPVPVARKLSAREQRDCEVIERLIKSYFLIVRKNIQDSVPKAVMHFLVNHVKDTLQSELVGQLYKSSLLDDLLTESEDMAQRRKEAADMLKALQGASQIIAEIRETHLW

Biological target: the molecule itself
Experiment: mass photometry

Row | Protein | stoichiometry N
1 | B1 | 2
2 | B2 | 2
3 | B3 | 2
4 | B4 | 2
5 | B5 | 2
6 | B6 | 2
